Reference: the supplement of paper PMC9112550, “Optimization of the antimicrobial peptide Bac7 by deep mutational scanning” (BMC Biology, 2022)

tested on: Escherichia coli TOP10; assay: shrunken log2 fold change of peptide-encoding DNA abundance (4.5 h post-induction vs induction); higher = less antimicrobial activity (less host growth inhibition); details: time post-induction: 4.5 h; library: site-saturation at positions 5, 18, 19, 20
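Also: peptides expressed intracellularly from a pBAD plasmid library in pooled LB shake-flask culture, induced with 0.3% L-arabinose, DNA abundance read by NGS, three biological replicates, DESeq2 with apeglm shrinkage.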

Row | Sequence | shrunken log2 fold change
1 | RRIRDRPPRLPRPRPRPFCHPRP | -0.00713
2 | RRIRSRPPRLPRPRPRPRGDPRP | 0.477
3 | RRIRDRPPRLPRPRPRPDCQPRP | -0.00973
4 | RRIRNRPPRLPRPRPRPYCTPRP | -0.169
5 | RRIRKRPPRLPRPRPRPRPMPRP | 0.585
6 | RRIRSRPPRLPRPRPRPVDKPRP | -0.175
7 | RRIRVRPPRLPRPRPRPALVPRP | 0.464
8 | RRIRWRPPRLPRPRPRPFRQPRP | -0.0956
9 | RRIRKRPPRLPRPRPRPMDKPRP | 0.166
10 | RRIRWRPPRLPRPRPRPMTIPRP | 0.025
11 | RRIRHRPPRLPRPRPRPCTAPRP | 0.0655
12 | RRIRIRPPRLPRPRPRPHLNPRP | -0.852
13 | RRIRTRPPRLPRPRPRPQTPPRP | 0.25
14 | RRIRRRPPRLPRPRPRPPTHPRP | 0.622
15 | RRIRWRPPRLPRPRPRPLTQPRP | 0.307
16 | RRIRYRPPRLPRPRPRPSDYPRP | -1.34
17 | RRIRIRPPRLPRPRPRPAYIPRP | 0.011
18 | RRIRSRPPRLPRPRPRPNDWPRP | 0.179
19 | RRIRLRPPRLPRPRPRPYKIPRP | -0.0766
20 | RRIRDRPPRLPRPRPRPYDDPRP | -0.00157
21 | RRIRQRPPRLPRPRPRPYGQPRP | -0.239
22 | RRIRNRPPRLPRPRPRPGNHPRP | -0.265
23 | RRIRFRPPRLPRPRPRPMSHPRP | 0.00661
24 | RRIRYRPPRLPRPRPRPGHRPRP | 0.0683
25 | RRIRVRPPRLPRPRPRPTYLPRP | 0.00624

Row | Sequence | shrunken log2 fold change
26 | RRIRTRPPRLPRPRPRPLSKPRP | -0.22
27 | RRIRIRPPRLPRPRPRPTSLPRP | -0.14
28 | RRIRQRPPRLPRPRPRPCRWPRP | -0.0062
29 | RRIRFRPPRLPRPRPRPVNNPRP | -0.316
30 | RRIRCRPPRLPRPRPRPMDAPRP | -0.0146
31 | RRIRDRPPRLPRPRPRPVSYPRP | -0.0715
32 | RRIRHRPPRLPRPRPRPYWGPRP | -0.0562
33 | RRIRKRPPRLPRPRPRPALCPRP | 0.146
34 | RRIRHRPPRLPRPRPRPEAEPRP | 0.409
35 | RRIRVRPPRLPRPRPRPDCMPRP | 0.116
36 | RRIRPRPPRLPRPRPRPELRPRP | -0.0276
37 | RRIRWRPPRLPRPRPRPVVVPRP | 0.281
38 | RRIRFRPPRLPRPRPRPFRWPRP | 0.178
39 | RRIRNRPPRLPRPRPRPWMAPRP | -0.28
40 | RRIRWRPPRLPRPRPRPTHYPRP | 0.0892
41 | RRIRDRPPRLPRPRPRPQNMPRP | -0.574
42 | RRIRRRPPRLPRPRPRPCQRPRP | 0.0494
43 | RRIRRRPPRLPRPRPRPVYEPRP | 0.15
44 | RRIRWRPPRLPRPRPRPCLKPRP | 0.0308
45 | RRIRCRPPRLPRPRPRPKRPPRP | 0.158
46 | RRIRWRPPRLPRPRPRPWDEPRP | -0.106
47 | RRIRDRPPRLPRPRPRPWRWPRP | 0.196
48 | RRIRTRPPRLPRPRPRPMHMPRP | -0.202
49 | RRIRMRPPRLPRPRPRPRYVPRP | -0.18
50 | RRIRPRPPRLPRPRPRPARKPRP | 0.705

Row | Sequence | shrunken log2 fold change
51 | RRIRTRPPRLPRPRPRPHTWPRP | -0.281
52 | RRIRHRPPRLPRPRPRPHYHPRP | -0.785
53 | RRIRWRPPRLPRPRPRPFNPPRP | -0.389
54 | RRIRMRPPRLPRPRPRPRKSPRP | 0.902
55 | RRIRLRPPRLPRPRPRPMWCPRP | 0.214
56 | RRIRKRPPRLPRPRPRPFDFPRP | 0.0615
57 | RRIRIRPPRLPRPRPRPHIPPRP | -0.482
58 | RRIRDRPPRLPRPRPRPPCGPRP | 0.411
59 | RRIRYRPPRLPRPRPRPEKPPRP | -0.00145
60 | RRIRSRPPRLPRPRPRPFPNPRP | -0.133
61 | RRIRMRPPRLPRPRPRPEIDPRP | 3.19
62 | RRIRPRPPRLPRPRPRPRTPPRP | 0.536
63 | RRIRVRPPRLPRPRPRPDYPPRP | -0.177
64 | RRIRIRPPRLPRPRPRPGQRPRP | -0.0709
65 | RRIRCRPPRLPRPRPRPIQPPRP | -0.137
66 | RRIRVRPPRLPRPRPRPKRVPRP | 0.0344
67 | RRIRPRPPRLPRPRPRPGDHPRP | -0.013
68 | RRIRVRPPRLPRPRPRPKSPPRP | 0.272
69 | RRIRFRPPRLPRPRPRPNKTPRP | -0.172
70 | RRIRQRPPRLPRPRPRPTGRPRP | 0.146
71 | RRIRIRPPRLPRPRPRPWFFPRP | -0.198
72 | RRIRMRPPRLPRPRPRPICWPRP | 0.0409
73 | RRIRYRPPRLPRPRPRPTKFPRP | -0.316
74 | RRIRRRPPRLPRPRPRPCNNPRP | -0.368
75 | RRIRVRPPRLPRPRPRPWQMPRP | -0.00669

Row | Sequence | shrunken log2 fold change
76 | RRIRIRPPRLPRPRPRPDHDPRP | -0.0366
77 | RRIRDRPPRLPRPRPRPQASPRP | -0.0448
78 | RRIRLRPPRLPRPRPRPIEVPRP | 0.434
79 | RRIRKRPPRLPRPRPRPTMVPRP | 0.27
80 | RRIRNRPPRLPRPRPRPHSDPRP | 0.0373
81 | RRIRSRPPRLPRPRPRPPQFPRP | -0.103
82 | RRIRMRPPRLPRPRPRPWKHPRP | -0.109
83 | RRIRVRPPRLPRPRPRPWYRPRP | -0.39
84 | RRIRYRPPRLPRPRPRPKCIPRP | -0.154
85 | RRIRERPPRLPRPRPRPMRYPRP | 0.000213
86 | RRIRMRPPRLPRPRPRPMEYPRP | 0.0305
87 | RRIRFRPPRLPRPRPRPEIFPRP | -0.139
88 | RRIRIRPPRLPRPRPRPDTPPRP | 0.0459
89 | RRIRERPPRLPRPRPRPHCRPRP | -0.168
90 | RRIRNRPPRLPRPRPRPTKWPRP | -0.2
91 | RRIRTRPPRLPRPRPRPETDPRP | -0.0144
92 | RRIRNRPPRLPRPRPRPERGPRP | 0.296
93 | RRIRDRPPRLPRPRPRPGNLPRP | -0.0298
94 | RRIRARPPRLPRPRPRPLELPRP | 0.386
95 | RRIRNRPPRLPRPRPRPAHRPRP | 0.264
96 | RRIRCRPPRLPRPRPRPAWAPRP | 0.108
97 | RRIRYRPPRLPRPRPRPQDMPRP | 0.000181
98 | RRIRVRPPRLPRPRPRPFGCPRP | -0.19
99 | RRIRPRPPRLPRPRPRPQCGPRP | -0.0915
100 | RRIRPRPPRLPRPRPRPWQHPRP | -0.105

Row | Sequence | shrunken log2 fold change
101 | RRIRERPPRLPRPRPRPISVPRP | -0.137
102 | RRIRERPPRLPRPRPRPMMWPRP | 0.3
103 | RRIRKRPPRLPRPRPRPTMNPRP | -0.00264
104 | RRIRCRPPRLPRPRPRPDMKPRP | -0.996
105 | RRIRIRPPRLPRPRPRPMSFPRP | -0.178
106 | RRIRRRPPRLPRPRPRPGYCPRP | -0.0631
107 | RRIRKRPPRLPRPRPRPLDEPRP | 0.0161
108 | RRIRHRPPRLPRPRPRPGNMPRP | -0.121
109 | RRIRDRPPRLPRPRPRPWKPPRP | -0.35
110 | RRIRRRPPRLPRPRPRPTEVPRP | 0.238
111 | RRIRVRPPRLPRPRPRPFCVPRP | -0.0102
112 | RRIRKRPPRLPRPRPRPYCHPRP | -0.469
113 | RRIRARPPRLPRPRPRPHQTPRP | -0.103
114 | RRIRYRPPRLPRPRPRPVVEPRP | -0.34
115 | RRIRTRPPRLPRPRPRPEPIPRP | 0.226
116 | RRIRRRPPRLPRPRPRPIKMPRP | -0.0923
117 | RRIRVRPPRLPRPRPRPRDDPRP | -0.104
118 | RRIRERPPRLPRPRPRPQGNPRP | -0.166
119 | RRIRQRPPRLPRPRPRPVMKPRP | -0.212
120 | RRIRHRPPRLPRPRPRPSTGPRP | -0.24
121 | RRIRLRPPRLPRPRPRPVYSPRP | -0.881
122 | RRIRVRPPRLPRPRPRPNYMPRP | -0.923
123 | RRIRRRPPRLPRPRPRPKLDPRP | 0.523
124 | RRIRERPPRLPRPRPRPWLSPRP | 0.0694
125 | RRIRTRPPRLPRPRPRPRMIPRP | 0.113

Row | Sequence | shrunken log2 fold change
126 | RRIRQRPPRLPRPRPRPFIAPRP | -0.277
127 | RRIRRRPPRLPRPRPRPGSWPRP | 0.189
128 | RRIRPRPPRLPRPRPRPEGPPRP | -0.147
129 | RRIRTRPPRLPRPRPRPGCIPRP | -0.22
130 | RRIRERPPRLPRPRPRPHCNPRP | -1.07
131 | RRIRQRPPRLPRPRPRPPMGPRP | 0.187
132 | RRIRRRPPRLPRPRPRPIKCPRP | -0.17
133 | RRIRGRPPRLPRPRPRPAEAPRP | 1.08
134 | RRIRVRPPRLPRPRPRPCCFPRP | -0.00712
135 | RRIRSRPPRLPRPRPRPLANPRP | 0.271
136 | RRIRERPPRLPRPRPRPSQFPRP | -0.474
137 | RRIRLRPPRLPRPRPRPDLVPRP | 0.00214
138 | RRIRDRPPRLPRPRPRPHFGPRP | 0.0884
139 | RRIRMRPPRLPRPRPRPGGMPRP | 0.789
140 | RRIRARPPRLPRPRPRPEADPRP | 1.53
141 | RRIRNRPPRLPRPRPRPNRIPRP | -0.233
142 | RRIRRRPPRLPRPRPRPICGPRP | -0.0231
143 | RRIRGRPPRLPRPRPRPCLVPRP | 0.761
144 | RRIRNRPPRLPRPRPRPMNDPRP | 0.42
145 | RRIRYRPPRLPRPRPRPRCIPRP | -0.308
146 | RRIRVRPPRLPRPRPRPTDMPRP | -0.234
147 | RRIRWRPPRLPRPRPRPDFEPRP | 0.385
148 | RRIRRRPPRLPRPRPRPHTVPRP | 0.0423
149 | RRIRTRPPRLPRPRPRPERDPRP | 0.0175
150 | RRIRRRPPRLPRPRPRPETDPRP | -0.00744
